From patent US20140087995A1 (published 2014)
Numbered stars: 1 amine (or outer) side, 2 acyl side, 3 side chain; on linkers, the order of the positions; unused ones are H or OH. Bridge positions count the residues as written; N and C are the ends. Side chains are listed from the residue outwards. Ends that are not written are not given here. * marks the point of attachment. C20 diacid = O=C(O)CCCCCCCCCCCCCCCCCCC(=O)*; γGlu = O=C(O)[C@H](CCC(=O)[*:2])N[*:1]; AEEA = NCCOCCOCC(=O)O

T1: human calcitonin receptor (human, UniProt P30988 25-474)
T1 construct: whole, on cells; also called hCTR; hCT
T1 sequence (looked up): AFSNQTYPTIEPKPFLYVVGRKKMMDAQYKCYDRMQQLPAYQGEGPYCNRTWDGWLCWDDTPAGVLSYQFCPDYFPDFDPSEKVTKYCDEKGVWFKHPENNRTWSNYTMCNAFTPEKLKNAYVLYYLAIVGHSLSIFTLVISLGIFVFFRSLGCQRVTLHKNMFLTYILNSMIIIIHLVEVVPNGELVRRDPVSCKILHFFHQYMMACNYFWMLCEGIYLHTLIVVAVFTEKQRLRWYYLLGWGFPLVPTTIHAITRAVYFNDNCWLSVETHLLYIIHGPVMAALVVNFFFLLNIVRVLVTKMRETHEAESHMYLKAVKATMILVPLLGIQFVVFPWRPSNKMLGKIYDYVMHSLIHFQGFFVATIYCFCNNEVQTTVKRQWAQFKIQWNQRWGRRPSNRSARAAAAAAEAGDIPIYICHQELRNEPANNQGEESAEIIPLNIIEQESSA

T2: rat amylin receptor (rat calcitonin receptor + rat RAMP 3) (rat, UniProt P32214 25-516; Q9JJ73 23-147)
T2 construct: whole, on cells; also called rAmylin-R; rat amylin 3(a) receptor
T2 sequence (looked up) 1: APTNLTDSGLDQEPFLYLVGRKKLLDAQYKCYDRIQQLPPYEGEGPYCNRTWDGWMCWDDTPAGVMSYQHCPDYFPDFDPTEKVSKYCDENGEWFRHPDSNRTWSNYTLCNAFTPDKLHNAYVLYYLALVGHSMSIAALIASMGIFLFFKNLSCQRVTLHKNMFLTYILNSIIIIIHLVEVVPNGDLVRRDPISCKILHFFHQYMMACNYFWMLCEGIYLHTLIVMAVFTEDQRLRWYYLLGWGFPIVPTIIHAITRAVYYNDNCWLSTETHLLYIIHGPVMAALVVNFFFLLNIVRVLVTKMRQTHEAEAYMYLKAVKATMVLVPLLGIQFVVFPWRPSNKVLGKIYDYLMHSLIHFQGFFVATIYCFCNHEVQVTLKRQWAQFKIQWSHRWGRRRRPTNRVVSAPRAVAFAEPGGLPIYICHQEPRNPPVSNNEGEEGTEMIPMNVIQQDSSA
T2 sequence (looked up) 2: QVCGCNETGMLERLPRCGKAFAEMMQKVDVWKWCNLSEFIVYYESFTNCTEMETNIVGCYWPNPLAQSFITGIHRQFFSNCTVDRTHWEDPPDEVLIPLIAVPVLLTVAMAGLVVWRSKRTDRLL

T3: rat calcitonin receptor (rat, UniProt P32214 25-516)
T3 construct: whole, on cells; also called rCTR; rat calcitonin (a) receptor
T3 sequence (looked up): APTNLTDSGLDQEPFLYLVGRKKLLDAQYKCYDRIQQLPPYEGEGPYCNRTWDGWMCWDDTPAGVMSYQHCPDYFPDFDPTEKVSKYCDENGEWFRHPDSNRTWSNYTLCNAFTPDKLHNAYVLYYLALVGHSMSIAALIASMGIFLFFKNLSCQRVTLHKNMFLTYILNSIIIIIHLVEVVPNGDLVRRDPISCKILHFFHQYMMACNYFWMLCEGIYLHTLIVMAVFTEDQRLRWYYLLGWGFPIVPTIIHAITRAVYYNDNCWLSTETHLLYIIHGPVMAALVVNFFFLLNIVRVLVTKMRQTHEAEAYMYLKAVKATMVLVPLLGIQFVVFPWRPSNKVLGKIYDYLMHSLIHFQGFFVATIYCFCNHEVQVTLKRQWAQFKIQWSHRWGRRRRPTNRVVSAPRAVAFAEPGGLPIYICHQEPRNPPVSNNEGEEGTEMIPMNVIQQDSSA

B1: N^ε1-[2-[2-[2-[[(4S)-4-carboxy-4-(19-carboxynonadecanoylamino)butanoyl]amino]ethoxy]ethoxy]acetyl]-[Arg14,Arg17,Pro21,Pro27,Pro31]-h-amylin (peptide)
peptide: K([AEEA-γGlu-C20 diacid])CNTATCATQRLARFLRHSSPNFGAIPSSTPVGSNTY-NH2
modifications: disulfide 2-7; N-terminus assumed
SMILES: CC[C@H](C)[C@H](NC(=O)[C@H](C)NC(=O)CNC(=O)[C@H](Cc1ccccc1)NC(=O)[C@H](CC(N)=O)NC(=O)[C@@H]1CCCN1C(=O)[C@H](CO)NC(=O)[C@H](CO)NC(=O)[C@H](Cc1c[nH]cn1)NC(=O)[C@H](CCCNC(=N)N)NC(=O)[C@H](CC(C)C)NC(=O)[C@H](Cc1ccccc1)NC(=O)[C@H](CCCNC(=N)N)NC(=O)[C@H](C)NC(=O)[C@H](CC(C)C)NC(=O)[C@H](CCCNC(=N)N)NC(=O)[C@H](CCC(N)=O)NC(=O)[C@@H](NC(=O)[C@H](C)NC(=O)[C@@H]1CSSC[C@H](NC(=O)[C@@H](N)CCCCNC(=O)COCCOCCNC(=O)CC[C@H](NC(=O)CCCCCCCCCCCCCCCCCCC(=O)O)C(=O)O)C(=O)N[C@@H](CC(N)=O)C(=O)N[C@@H]([C@@H](C)O)C(=O)N[C@@H](C)C(=O)N[C@@H]([C@@H](C)O)C(=O)N1)[C@@H](C)O)C(=O)N1CCC[C@H]1C(=O)N[C@@H](CO)C(=O)N[C@@H](CO)C(=O)N[C@H](C(=O)N1CCC[C@H]1C(=O)N[C@H](C(=O)NCC(=O)N[C@@H](CO)C(=O)N[C@@H](CC(N)=O)C(=O)N[C@H](C(=O)N[C@@H](Cc1ccc(O)cc1)C(N)=O)[C@@H](C)O)C(C)C)[C@@H](C)O
notes: synthetic analogue of human amylin; also called compound 64
B2: N^ε1-[2-[2-[2-[[(4S)-4-carboxy-4-(19-carboxynonadecanoylamino)butanoyl]amino]ethoxy]ethoxy]acetyl]-[Arg17,Pro21,Pro27,Pro28,Pro31]-h-amylin (peptide)
peptide: K([AEEA-γGlu-C20 diacid])CNTATCATQRLANFLRHSSPNFGAIPPSTPVGSNTY-NH2
modifications: disulfide 2-7
notes: synthetic analogue of human amylin; also called compound 53
B3: N^ε1-[2-[2-[2-[[(4S)-4-carboxy-4-(19-carboxynonadecanoylamino)butanoyl]amino]ethoxy]ethoxy]acetyl]-[Arg17,Pro21,Pro27,His34]-h-amylin (peptide)
peptide: K([AEEA-γGlu-C20 diacid])CNTATCATQRLANFLRHSSPNFGAIPSSTNVGHNTY-NH2
modifications: disulfide 2-7; N-terminus assumed
SMILES: CC[C@H](C)[C@H](NC(=O)[C@H](C)NC(=O)CNC(=O)[C@H](Cc1ccccc1)NC(=O)[C@H](CC(N)=O)NC(=O)[C@@H]1CCCN1C(=O)[C@H](CO)NC(=O)[C@H](CO)NC(=O)[C@H](Cc1c[nH]cn1)NC(=O)[C@H](CCCNC(=N)N)NC(=O)[C@H](CC(C)C)NC(=O)[C@H](Cc1ccccc1)NC(=O)[C@H](CC(N)=O)NC(=O)[C@H](C)NC(=O)[C@H](CC(C)C)NC(=O)[C@H](CCCNC(=N)N)NC(=O)[C@H](CCC(N)=O)NC(=O)[C@@H](NC(=O)[C@H](C)NC(=O)[C@@H]1CSSC[C@H](NC(=O)[C@@H](N)CCCCNC(=O)COCCOCCNC(=O)CC[C@H](NC(=O)CCCCCCCCCCCCCCCCCCC(=O)O)C(=O)O)C(=O)N[C@@H](CC(N)=O)C(=O)N[C@@H]([C@@H](C)O)C(=O)N[C@@H](C)C(=O)N[C@@H]([C@@H](C)O)C(=O)N1)[C@@H](C)O)C(=O)N1CCC[C@H]1C(=O)N[C@@H](CO)C(=O)N[C@@H](CO)C(=O)N[C@H](C(=O)N[C@@H](CC(N)=O)C(=O)N[C@H](C(=O)NCC(=O)N[C@@H](Cc1c[nH]cn1)C(=O)N[C@@H](CC(N)=O)C(=O)N[C@H](C(=O)N[C@@H](Cc1ccc(O)cc1)C(N)=O)[C@@H](C)O)C(C)C)[C@@H](C)O
notes: synthetic analogue of human amylin; also called compound 76
B4: N^ε1-[2-[2-[2-[[(4S)-4-carboxy-4-(19-carboxynonadecanoylamino)butanoyl]amino]ethoxy]ethoxy]acetyl]-[Arg17,Pro21,Pro27,Arg34]-h-amylin (peptide)
peptide: K([AEEA-γGlu-C20 diacid])CNTATCATQRLANFLRHSSPNFGAIPSSTNVGRNTY-NH2
modifications: disulfide 2-7; N-terminus assumed
SMILES: CC[C@H](C)[C@H](NC(=O)[C@H](C)NC(=O)CNC(=O)[C@H](Cc1ccccc1)NC(=O)[C@H](CC(N)=O)NC(=O)[C@@H]1CCCN1C(=O)[C@H](CO)NC(=O)[C@H](CO)NC(=O)[C@H](Cc1c[nH]cn1)NC(=O)[C@H](CCCNC(=N)N)NC(=O)[C@H](CC(C)C)NC(=O)[C@H](Cc1ccccc1)NC(=O)[C@H](CC(N)=O)NC(=O)[C@H](C)NC(=O)[C@H](CC(C)C)NC(=O)[C@H](CCCNC(=N)N)NC(=O)[C@H](CCC(N)=O)NC(=O)[C@@H](NC(=O)[C@H](C)NC(=O)[C@@H]1CSSC[C@H](NC(=O)[C@@H](N)CCCCNC(=O)COCCOCCNC(=O)CC[C@H](NC(=O)CCCCCCCCCCCCCCCCCCC(=O)O)C(=O)O)C(=O)N[C@@H](CC(N)=O)C(=O)N[C@@H]([C@@H](C)O)C(=O)N[C@@H](C)C(=O)N[C@@H]([C@@H](C)O)C(=O)N1)[C@@H](C)O)C(=O)N1CCC[C@H]1C(=O)N[C@@H](CO)C(=O)N[C@@H](CO)C(=O)N[C@H](C(=O)N[C@@H](CC(N)=O)C(=O)N[C@H](C(=O)NCC(=O)N[C@@H](CCCNC(=N)N)C(=O)N[C@@H](CC(N)=O)C(=O)N[C@H](C(=O)N[C@@H](Cc1ccc(O)cc1)C(N)=O)[C@@H](C)O)C(C)C)[C@@H](C)O
notes: synthetic analogue of human amylin; also called compound 78
B5: N^ε1-[2-[2-[2-[[(4S)-4-carboxy-4-(19-carboxynonadecanoylamino)butanoyl]amino]ethoxy]ethoxy]acetyl]-[Arg14,Arg17,Pro21,Pro27]-h-amylin (peptide)
peptide: K([AEEA-γGlu-C20 diacid])CNTATCATQRLARFLRHSSPNFGAIPSSTNVGSNTY-NH2
modifications: disulfide 2-7; N-terminus assumed
SMILES: CC[C@H](C)[C@H](NC(=O)[C@H](C)NC(=O)CNC(=O)[C@H](Cc1ccccc1)NC(=O)[C@H](CC(N)=O)NC(=O)[C@@H]1CCCN1C(=O)[C@H](CO)NC(=O)[C@H](CO)NC(=O)[C@H](Cc1c[nH]cn1)NC(=O)[C@H](CCCNC(=N)N)NC(=O)[C@H](CC(C)C)NC(=O)[C@H](Cc1ccccc1)NC(=O)[C@H](CCCNC(=N)N)NC(=O)[C@H](C)NC(=O)[C@H](CC(C)C)NC(=O)[C@H](CCCNC(=N)N)NC(=O)[C@H](CCC(N)=O)NC(=O)[C@@H](NC(=O)[C@H](C)NC(=O)[C@@H]1CSSC[C@H](NC(=O)[C@@H](N)CCCCNC(=O)COCCOCCNC(=O)CC[C@H](NC(=O)CCCCCCCCCCCCCCCCCCC(=O)O)C(=O)O)C(=O)N[C@@H](CC(N)=O)C(=O)N[C@@H]([C@@H](C)O)C(=O)N[C@@H](C)C(=O)N[C@@H]([C@@H](C)O)C(=O)N1)[C@@H](C)O)C(=O)N1CCC[C@H]1C(=O)N[C@@H](CO)C(=O)N[C@@H](CO)C(=O)N[C@H](C(=O)N[C@@H](CC(N)=O)C(=O)N[C@H](C(=O)NCC(=O)N[C@@H](CO)C(=O)N[C@@H](CC(N)=O)C(=O)N[C@H](C(=O)N[C@@H](Cc1ccc(O)cc1)C(N)=O)[C@@H](C)O)C(C)C)[C@@H](C)O
notes: synthetic analogue of human amylin; also called compound 82

Experiments:
[1] = molecular target: T1, human calcitonin receptor; experiment: ratio of binding IC50s: human calcitonin receptor over human amylin receptor (reference)
Method: The resulting pellet was resuspended, homogenized and centrifuged (20.000 rpm, 15 min) in a buffer containing 20 mM Na-HEPES and 0.1 mM EDTA (pH 7.4, buffer 2). The resulting pellet was resuspended in buffer 2 and protein concentration was measured (BCA protein Assay, Pierce). The homogenate was kept cold during the whole procedure. The membranes were kept at −80° C. until use. The assay was performed in a 384 well Optiplate (PerkinElmer) in a total volume of 40 ul. Membranes were mixed with SPA beads. Final concentration of membranes 35 ng/μL final and SPA beads was 0.05 mg/well. Test-compounds were dissolved in DMSO and further diluted in assay buffer (50 mM Hepes, pH 7.4, 1 mM CaCl2, 5 mM MgCl₂, 0.1% OA and 0.02% Tween20). […] The final mixture was incubated with shaking at 400 rpm for 120 min at 25° C. prior to centrifugation (1500 rpm, 10 min). Samples were analyzed on TopCounter™ (Packard). The IC₅₀ was calculated using (one site binding competition analysis) GraphPad Prism5 as a measure of receptor affinity.
Membranes were prepared in the following way; the cells were rinsed with PBS and incubated with Versene for approximately 5 min before harvesting. The cells were flushed with PBS and the cell-suspension was centrifuged for 5 min at 1000 rpm. Cells were homogenized (Ultrathurrax) in a buffer containing 20 mM Na-HEPES and 10 mM EDTA (pH 7.4) and centrifuged at 20.000 rpm for 15 min. The resulting pellet was resuspended, homogenized and centrifuged (20.000 rpm, 15 min) in a buffer containing 20 mM Na-HEPES and 0.1 mM EDTA (pH 7.4, buffer 2). The resulting pellet was resuspended in buffer 2 and protein concentration was measured (BCA protein Assay, Pierce). The homogenate was kept cold during the whole procedure. The membranes were kept at −80° C. until use. Assay was performed in a 384 well Optiplate (PerkinElmer) in a total volume of 40 ul. Membranes were mixed with SPA beads.

[2] = molecular target: T2, rat amylin receptor (rat calcitonin …); experiment: SPA competition with 125I-rat amylin, membranes of BHK cells with rat calcitonin receptor + rat RAMP3 (Assay VI)
rat calcitonin receptor [3] = molecular target: T3, rat calcitonin receptor; experiment: ratio of binding IC50s: rat calcitonin receptor over rat amylin receptor (reference)
rat calcitonin receptor [4] = molecular target: T3, rat calcitonin receptor; experiment: SPA competition with 125I-calcitonin, membranes of BHK cells with rat calcitonin receptor (Assay VIII)

Binder | Ratio hCT/hAmylin binding [1] | IC50 [2] | Ratio rCT/rAmylin binding (rat calcitonin receptor [3]) | IC50 (rat calcitonin receptor [4])
B1 | 126 | 1.97 nM | 64.7 | 128 nM
B2 | 104 | 0.084 nM | 130 | 10.9 nM
B3 | 80 | 0.686 nM | 56.8 | 38.9 nM
B4 | 60.7 | 1.3 nM | 69.9 | 90.6 nM
B5 | 140 | 1.64 nM | 87 | 143 nM
